According to publication PMC7905944 (Science signaling, 2020):

Target: the molecule itself
Assay: cross-linking

B1: endogenous LGR5 of LoVo cells (receptor, human (endogenous in LoVo), UniProt O75473 22-907, looked up)
chain: GSSPRSGVLLRGCPTHCHCEPDGRMLLRVDCSDLGLSELPSNLSVFTSYLDLSMNNISQLLPNPLPSLRFLEELRLAGNALTYIPKGAFTGLYSLKVLMLQNNQLRHVPTEALQNLRSLQSLRLDANHISYVPPSCFSGLHSLRHLWLDDNALTEIPVQAFRSLSALQAMTLALNKIHHIPDYAFGNLSSLVVLHLHNNRIHSLGKKCFDGLHSLETLDLNYNNLDEFPTAIRTLSNLKELGFHSNNIRSIPEKAFVGNPSLITIHFYDNPIQFVGRSAFQHLPELRTLTLNGASQITEFPDLTGTANLESLTLTGAQISSLPQTVCNQLPNLQVLDLSYNLLEDLPSFSVCQKLQKIDLRHNEIYEIKVDTFQQLLSLRSLNLAWNKIAIIHPNAFSTLPSLIKLDLSSNLLSSFPITGLHGLTHLKLTGNHALQSLISSENFPELKVIEMPYAYQCCAFGVCENAYKISNQWNKGDNSSMDDLHKKDAGMFQAQDERDLEDFLLDFEEDLKALHSVQCSPSPGPFKPCEHLLDGWLIRIGVWTIAVLALTCNALVTSTVFRSPLYISPIKLLIGVIAAVNMLTGVSSAVLAGVDAFTFGSFARHGAWWENGVGCHVIGFLSIFASESSVFLLTLAALERGFSVKYSAKFETKAPFSSLKVIILLCALLALTMAAVPLLGGSKYGASPLCLPLPFGEPSTMGYMVALILLNSLCFLMMTIAYTKLYCNLDKGDLENIWDCSMVKHIALLLFTNCILNCPVAFLSFSSLINLTFISPEVIKFILLVVVPLPACLNPLLYILFNPHFKEDLVSLRKQTYVWTRSKHPSLMSINSDDVEKQSCDSTQALVTFTSSSITYDLPPSSVPSPAYPVTESCHLSSVAFVPCL
  stoichiometry N: 2
